Experimental data: US7943340B2, “Fungal dipeptidyl peptidase IV (DPPIV) enzyme for reagent use” (priority 2003, dated 2011)
Entries after “also recorded” stand apart in the source; their conditions may differ.

B1: fuLAP2: A. fumigatus leucine aminopeptidase, 498 amino acid residues (SEQ ID NO: 9) (protein, listed as Aspergillus fumigatus)
chain: MKLLYLTSFASLAVANGPGWDWKPRVHPKVLPQMIHLWDLLQGAQQLEDFAYAYPERNRVFGGRAHEDTVNYLYRELKKTGYYDVYKQPQVHQWTRADQALTVDGQSYDATTMTYSPSVNATAPLAVVNNLGCVEADYPADLTGKIALISRGECTFATKSVLSAKAGAAAALVYNNIEGSMAGTLGGATSELGAYAPIAGISLADGQALIQMIQAGTVTANLWIDSQVENRTTYNVIAQTKGGDPNNVVALGGHTDSVEAGPGINDDGSGIISNLVVAKALTRFSVKNAVRFCFWTAEEFGLLGSNYYVNSLNATEQAKIRLYLNFDMIASPNYALMIYDGDGSAFNLTGPAGSAQIERLFEDYYTSIRKPFVPTEFNGRSDYQAFILNGIPAGGLFTGAEAIKTEEQAQLFGGQAGVALDANYHAKGDNMTNLNREAFLINSRATAFAVATYANSLDSIPPRNMTTVVKRSQLEQAMKRTPHTHTGGTGCYKDRVEQ
B2: pkLAP: commercially available microsomal LAP from porcine kidney (MEROPS>M1 family) (protein, UniProt P15145 2-963, looked up)
Aminopeptidase N: AKGFYISKALGILGILLGVAAVATIIALSVVYAQEKNKNAEHVPQAPTSPTITTTAAITLDQSKPWNRYRLPTTLLPDSYNVTLRPYLTPNADGLYIFKGKSIVRLLCQEPTDVIIIHSKKLNYTTQGHMVVLRGVGDSQVPEIDRTELVELTEYLVVHLKGSLQPGHMYEMESEFQGELADDLAGFYRSEYMEGNVKKVLATTQMQSTDARKSFPCFDEPAMKATFNITLIHPNNLTALSNMPPKGSSTPLAEDPNWSVTEFETTPVMSTYLLAYIVSEFQSVNETAQNGVLIRIWARPNAIAEGHGMYALNVTGPILNFFANHYNTSYPLPKSDQIALPDFNAGAMENWGLVTYRENALLFDPQSSSISNKERVVTVIAHELAHQWFGNLVTLAWWNDLWLNEGFASYVEYLGADHAEPTWNLKDLIVPGDVYRVMAVDALASSHPLTTPAEEVNTPAQISEMFDSISYSKGASVIRMLSNFLTEDLFKEGLASYLHAFAYQNTTYLDLWEHLQKAVDAQTSIRLPDTVRAIMDRWTLQMGFPVITVDTKTGNISQKHFLLDSESNVTRSSAFDYLWIVPISSIKNGVMQDHYWLRDVSQAQNDLFKTASDDWVLLNVNVTGYFQVNYDEDNWRMIQHQLQTNLSVIPVINRAQVIYDSFNLATAHMVPVTLALDNTLFLNGEKEYMPWQAALSSLSYFSLMFDRSEVYGPMKKYLRKQVEPLFQHFETLTKNWTERPENLMDQYSEINAISTACSNGLPQCENLAKTLFDQWMSDPENNPIHPNLRSTIYCNAIAQGGQDQWDFAWGQLQQAQLVNEADKLRSALACSNEVWLLNRYLGYTLNPDLIRKQDATSTINSIASNVIGQPLAWDFVQSNWKKLFQDYGGGSFSFSNLIQGVTRRFSSEFELQQLEQFKKNNMDVGFGSGTRALEQALEKTKANIKWVKENKEVVLNWFIEHS

Experiments:
[1] = system: all the LAPs tested (ruLAP1, ruLAP2, fuLAP1, fuLAP2, pkLAP); format: biochemical; settings: Leu-AMC 5 mM; amastatin 500 μM; ortho-phenantroline 1 and 5 mM; others as
Protocol: Inhibitors and metallic cations were pre-incubated with the enzymes for 15 min at 37° C. Then, Leu-AMC at a 5 mM final concentration was added. After further incubation for 60 min, enzyme activity was measured as described above. The inhibitors and their concentrations tested purified LAPs were: 500 μM amastatin (Bachem), 40 μM benzamidine (Sigma), 500 μM bestatin (Bachem), 5 mM/l mM EDTA (Sigma). 100 μM E-64 (L-trans-epoxysuccinyl-leu-4-guanidinobutylamide) (Bachem), 100 μM leupeptin (Sigma), 5 mM/1 mM ortho-phenanthroline (Sigma), 500 μM p-chloromercuribenzoic acid (Sigma), 100 μM pepstatin A (Sigma), 40 μM PMSF (Sigma), 20 μM TLCK (Roche Diagnostics), and 20 μM TPCK (Roche Diagnostics).

[2] = system: T. rubrum secreted proteolytic activity; assay: Inhibition of T. rubrum secreted proteolytic activity (resorufin-labeled casein); format: biochemical, Trichophyton rubrum; settings: resorufin-labeled casein as substrate
Protocol: The proteolytic activity was measured using resorufin-labeled casein in phosphate buffer (20 mM; pH 7.4). The reaction mixture contained 0.02% substrate in a total volume of 0.5 ml. After incubation at 37° C., the undigested substrate was precipitated by trichloroacetic add (4% final concentration) and separated from the supernatant by centrifugation. The absorbance at 574 nm of the supernatant was measured after alkalinization by adding 500 μl Tris buffer (500 mM; pH 9.4). For practical purposes, one unit (U) of proteolytic activity was defined as that producing an absorbance of 0.001 per min.
T. rubrum was grown at 30° C. in a medium containing 0.2% soy protein as a sole carbon and nitrogen source. After 14 days of growth, a concomitant clarification of the culture medium was noted and a substantial proteolytic activity (400 U ml^−1) detected using resorufin-labeled casein as substrate. This proteolytic activity was 15% and 85% inhibited by PMSF and ortho-phenanthroline. respectively, attesting that serine and metalloproteases were secreted by T. rubrum. […] In addition, a high activity on substrates such as Leu-AMC and Leu-pNA was detected in the T. rubrum culture supernatant.

[3] = Aminopeptidase activity assay with fluorogenic aminoacyl-AMC substrates; format: biochemical; settings: for preference for aminoacyl-AMC substrates compared to Leu-AMC: Leu-AMC used as a reference; for hydrolytic activity toward Ala-AMC in comparison (%) to Leu-MCA: substrate Ala-AMC; for hydrolytic activity toward Ala-AMC in comparison (%) to Leu-MCA / hydrolytic activity toward Arg-AMC in comparison (%) to Leu-MCA / hydrolytic activity toward Asn-AMC in comparison (%) to Leu-MCA / hydrolytic activity toward Asp-AMC in comparison (%) to Leu-MCA / hydrolytic activity toward Cys-AMC in comparison (%) to Leu-MCA / hydrolytic activity toward Gln-AMC in comparison (%) to Leu-MCA / hydrolytic activity toward Glu-AMC in comparison (%) to Leu-MCA / hydrolytic activity toward Gly-AMC in comparison (%) to Leu-MCA / hydrolytic activity toward Gly-Pro-AMC in comparison (%) to Leu-MCA / hydrolytic activity toward His-AMC in comparison (%) to Leu-MCA / hydrolytic activity toward Hyp-AMC in comparison (%) to Leu-MCA / hydrolytic activity toward Ile-AMC in comparison (%) to Leu-MCA / hydrolytic activity toward Leu-AMC in comparison (%) to Leu-MCA used as a standard / hydrolytic activity toward Lys-AMC in comparison (%) to Leu-MCA / hydrolytic activity toward Met-AMC in comparison (%) to Leu-MCA / hydrolytic activity toward Phe-AMC in comparison (%) to Leu-MCA / hydrolytic activity toward Pro-AMC in comparison (%) to Leu-MCA / hydrolytic activity toward Pyr-AMC in comparison (%) to Leu-MCA / hydrolytic activity toward Ser-AMC in comparison (%) to Leu-MCA / hydrolytic activity toward Thr-AMC in comparison (%) to Leu-MCA / hydrolytic activity toward Val-AMC in comparison (%) to Leu-MCA: 5 mM, 37° C., 60 min; for hydrolytic activity toward Arg-AMC in comparison (%) to Leu-MCA: substrate Arg-AMC; for hydrolytic activity toward Asn-AMC in comparison (%) to Leu-MCA: substrate Asn-AMC; for hydrolytic activity toward Asp-AMC in comparison (%) to Leu-MCA: substrate Asp-AMC; for hydrolytic activity toward Cys-AMC in comparison (%) to Leu-MCA: substrate Cys-AMC; for hydrolytic activity toward Gln-AMC in comparison (%) to Leu-MCA: substrate Gln-AMC; for hydrolytic activity toward Glu-AMC in comparison (%) to Leu-MCA: substrate Glu-AMC; for hydrolytic activity toward Gly-AMC in comparison (%) to Leu-MCA: substrate Gly-AMC; for hydrolytic activity toward Gly-Pro-AMC in comparison (%) to Leu-MCA: substrate Gly-Pro-AMC; for hydrolytic activity toward His-AMC in comparison (%) to Leu-MCA: substrate His-AMC; for hydrolytic activity toward Hyp-AMC in comparison (%) to Leu-MCA: substrate Hyp-AMC; for hydrolytic activity toward Ile-AMC in comparison (%) to Leu-MCA: substrate Ile-AMC; for hydrolytic activity toward Leu-AMC in comparison (%) to Leu-MCA used as a standard: substrate Leu-AMC (standard); for hydrolytic activity toward Lys-AMC in comparison (%) to Leu-MCA: substrate Lys-AMC; for hydrolytic activity toward Met-AMC in comparison (%) to Leu-MCA: substrate Met-AMC; for hydrolytic activity toward Phe-AMC in comparison (%) to Leu-MCA: substrate Phe-AMC; for hydrolytic activity toward Pro-AMC in comparison (%) to Leu-MCA: substrate Pro-AMC; for hydrolytic activity toward Pyr-AMC in comparison (%) to Leu-MCA: substrate Pyr-AMC; for hydrolytic activity toward Ser-AMC in comparison (%) to Leu-MCA: substrate Ser-AMC; for hydrolytic activity toward Thr-AMC in comparison (%) to Leu-MCA: substrate Thr-AMC; for hydrolytic activity toward Val-AMC in comparison (%) to Leu-MCA: substrate Val-AMC
Protocol: (§1) Aminopeptidase activity was determined using different fluorogenic aminoacyl-4-methylcoumaryl-7-amide derivatives of peptides and the internally quenched fluorogenic substrate Lys(Abz)-Pro-Pro-pNA for specific determination of aminopeptidase P activity. Stockel et al, Adv Exp. Med. Biol. 421:31-35 (1997). All substrates were from Bachem (Bubendorf, Switzerland). Substrate stock solutions were prepared at 0.1 M according to the recommendations of the manufacturer and stored at −20° C. The reaction mixture contained a concentration of 5 mM substrate and enzyme preparation (between 56 and 2,662 ng per assay depending on the cleavage activity of each enzyme for the substrates) in 25 μl of 50 mM Tris-HCl buffer adjusted at the optimal pH for each LAP (between 7 and 8). After incubation at 37° C. for 60 min, the reaction was terminated by adding 5 μl of glacial acetic acid and the reaction mixture was diluted with 3.5 ml of water. The released 7-amino-4-methylcoumarin (AMC) was measured using a spectrofluorophotometer (Perkin Elmer LS-5 fluorometer, Zurich, Switzerland) at an excitation wavelength of 370 nm and an emission wavelength of 460 nm. A standard curve made with synthetic AMC was used to assess the released AMC. The released diprolyl-p-nitroanilide was measured at an excitation wavelength of 310 nm and an emission wavelength of 410 nm. The LA activities were expressed in mnoles of released AMC or pNA/min/μg protein.
Table 15 details the hydrolytic activity of different LAPs toward various aminoacyl-MCA comparison (%) to Leu-MCA used as a standard.

[4] = Aminopeptidase P activity assay; format: biochemical; settings: substrate Lys(Abz)-Pro-Pro-pNA, 5 mM, 37° C., 60 min
Protocol: as §1

gliadin 33 mer = assay: Digestion of gliadin 33 mer (RP-HPLC, ESI-MS); format: biochemical, wheat; settings: 37° C., 1 mM CoCl2, pH7.2

Molecule	hydrolysis of Leu-AMC [3]	preference for aminoacyl-AMC substrates compared to Leu-AMC [3]	hydrolytic activity toward Ala-AMC in comparison (%) to Leu-MCA [3]	hydrolytic activity toward Arg-AMC in comparison (%) to Leu-MCA [3]	hydrolytic activity toward Asn-AMC in comparison (%) to Leu-MCA [3]	hydrolytic activity toward Asp-AMC in comparison (%) to Leu-MCA [3]	hydrolytic activity toward Cys-AMC in comparison (%) to Leu-MCA [3]	hydrolytic activity toward Gln-AMC in comparison (%) to Leu-MCA [3]	hydrolytic activity toward Glu-AMC in comparison (%) to Leu-MCA [3]	hydrolytic activity toward Gly-AMC in comparison (%) to Leu-MCA [3]	hydrolytic activity toward Gly-Pro-AMC in comparison (%) to Leu-MCA [3]	hydrolytic activity toward His-AMC in comparison (%) to Leu-MCA [3]	hydrolytic activity toward Hyp-AMC in comparison (%) to Leu-MCA [3]	hydrolytic activity toward Ile-AMC in comparison (%) to Leu-MCA [3]	hydrolytic activity toward Leu-AMC in comparison (%) to Leu-MCA used as a standard [3]	hydrolytic activity toward Lys-AMC in comparison (%) to Leu-MCA [3]	hydrolytic activity toward Met-AMC in comparison (%) to Leu-MCA [3]	hydrolytic activity toward Phe-AMC in comparison (%) to Leu-MCA [3]	hydrolytic activity toward Pro-AMC in comparison (%) to Leu-MCA [3]	hydrolytic activity toward Pyr-AMC in comparison (%) to Leu-MCA [3]	further results
c1cnc2c(c1)ccc1cccnc12 [ortho-phenanthroline]																					effect of inhibitor on all the LAPs tested [1]: totally inhibited; inhibition of proteolytic activity [2]: 85%
B1	efficiently hydrolyzed	common preference for Leu-AMC as a substrate	11.7%	2.3%	73.5%	0.3%	2.1%	37.0%	1.1%	2.2%	74.1%	1.9%	13.3%	1.8%	100.0%	2.3%	89.5%	8.9%	7.4%	0.0%	hydrolytic activity toward Ser-AMC in comparison (%) to Leu-MCA [3]: 10.3%; hydrolytic activity toward Thr-AMC in comparison (%) to Leu-MCA [3]: 0.1%; hydrolytic activity toward Val-AMC in comparison (%) to Leu-MCA [3]: 0.8%; hydrolytic activity toward Lys(Abz) Pro-PropNA in comparison (%) to Leu-MCA [4]: 0.0%
B2	efficiently hydrolyzed	extremely high efficiency towards Ala-AMC and Arg-AMC; also recorded: common preference for Leu-AMC as a substrate	584.7%	174.8%	33.9%	0.9%	35.5%	50.7%	4.7%	74.8%	16.7%	17.6%	1.7%	6.3%	100.0%	70.1%	46.1%	184.4%	7.9%	0.0%	hydrolytic activity toward Ser-AMC in comparison (%) to Leu-MCA [3]: 24.6%; hydrolytic activity toward Thr-AMC in comparison (%) to Leu-MCA [3]: 4.4%; hydrolytic activity toward Val-AMC in comparison (%) to Leu-MCA [3]: 4.0%; hydrolytic activity toward Lys(Abz) Pro-PropNA in comparison (%) to Leu-MCA [4]: 0.0%; digestion of the 33 mer (gliadin 33 mer): partial deletion of N-terminal Leu and C-terminal Phe
